Source: US20230280353A1, “DETECTION SYSTEM OF INTERACTION BETWEEN KNOWN MOLECULES AND PROTEINS BASED ON COVALENT CONNECTION AND IDENTIFICATION OR VERIFICATION METHOD THEREOF” (SHANGHAI JIAO TONG UNIVERSITY, priority 2021, published 2023)

T1: VacB (UniProt P21499 1-813)
T1 sequence: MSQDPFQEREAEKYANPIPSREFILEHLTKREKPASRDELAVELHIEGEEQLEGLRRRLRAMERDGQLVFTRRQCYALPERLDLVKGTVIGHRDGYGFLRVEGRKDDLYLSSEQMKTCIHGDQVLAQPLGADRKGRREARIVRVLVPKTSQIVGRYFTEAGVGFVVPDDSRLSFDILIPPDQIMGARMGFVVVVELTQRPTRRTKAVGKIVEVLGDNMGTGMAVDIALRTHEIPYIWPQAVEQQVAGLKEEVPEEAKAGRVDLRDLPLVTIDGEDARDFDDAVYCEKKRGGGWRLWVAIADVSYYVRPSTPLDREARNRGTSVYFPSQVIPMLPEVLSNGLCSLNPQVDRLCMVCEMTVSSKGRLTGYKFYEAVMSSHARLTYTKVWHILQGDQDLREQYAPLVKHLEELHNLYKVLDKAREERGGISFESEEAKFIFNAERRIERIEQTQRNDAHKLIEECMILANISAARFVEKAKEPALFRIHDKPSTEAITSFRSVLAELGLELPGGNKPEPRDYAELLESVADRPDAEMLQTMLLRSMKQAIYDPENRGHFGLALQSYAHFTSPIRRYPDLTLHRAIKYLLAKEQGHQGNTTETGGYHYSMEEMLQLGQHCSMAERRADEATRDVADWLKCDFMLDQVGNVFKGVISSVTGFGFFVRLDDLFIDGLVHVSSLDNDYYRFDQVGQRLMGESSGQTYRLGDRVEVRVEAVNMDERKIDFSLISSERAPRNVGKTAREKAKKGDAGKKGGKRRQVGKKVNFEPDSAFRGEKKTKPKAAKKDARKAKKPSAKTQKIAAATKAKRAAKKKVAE

T2: VacB, P21499
T2 chain: T1 sequence

T3: DksA, P0ABS1
T3 chain: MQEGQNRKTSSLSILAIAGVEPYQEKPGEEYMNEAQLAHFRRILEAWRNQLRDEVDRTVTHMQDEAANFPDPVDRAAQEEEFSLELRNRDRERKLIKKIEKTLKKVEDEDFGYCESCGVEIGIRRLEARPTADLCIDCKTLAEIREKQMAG

B1: CobB protein (biotin-modified, with Avi tag) (enzyme)
chain: MLSRRGHRLSRFRKNKRRLRERLRQRIFFRDKVVPEAMEKPRVLVLTGAGISAESGIRTFRAADGLWEEHRVEDVATPEGFDRDPELVQAFYNARRRQLQQPEIQPNAAHLALAKLQDALGDRFLLVTQNIDNLHERAGNTNVIHMHGELLKVRCSQSGQVLDWTGDVTPEDKCHCCQFPAPLRPHVVWFGEMPLGMDEIYMALSMADIFIAIGTSGHVYPAAGFVHEAKLHGAHTVELNLEPSQVGNEFAEKYYGPASQVVPEFVEKLLKGLKAGSIA
notes: also called biotinylated CobB protein
B2: CobB: Biotin-modified CobB protein with Avi tag; has deacetylase activity (protein)
chain: B1 chain
B3: SAm-Pup^E: mutated streptavidin-Pup tetramer, amino acid sequence SEQ ID NO: 5 (protein)
chain: MGAEAGITGTWYNQLGSTFIVTAGADGALTGTYESAVGNAESRYVLTGRYDSAPATDGSGTALGWTVAWRNNYRNAHSATTWSGQYVGGAEARINTQWLLTSGTTEANAWRSTLVGHDTFTRVRPSAASGGGGGSGSHHWGGGGSLTEETDDLLDEIDDVLEENAEDFVRAYVQRGGE
modifications: tetramer; The sequence is synthesized.
B4: CheZ: biotin-modified protein CheZ with Avi tag (protein)
chain: MMQPSIKPADEHSAGDIIARIGSLTRMLRDSLRELGLDQAIAEAAEAIPDARDRLYYVVQMTAQAAERALNSVEASQPHQDQMEKSAKALTQRWDDWFADPIDLADARELVTDTRQFLADVPAHTSFTNAQLLEIMMAQDFQDLTGQVIKRMMDVIQEIERQLLMVLLENIPEQESRPKRENQSLLNGPQVDTSKAGVVASQDQVDDLLDSLGF
B5: DksA (other)
chain: T3 chain

What was measured:
[1] = biological target: CobB protein (biotin-modified, with Avi tag) (UniProt P75960); assay: BLI; series 1000, 500, 250, 125, 62.5 nM; the filing does not say which partner was on the sensor
[2] = biological target: CobB protein (biotin-modified, with Avi tag) (UniProt P75960); assay: BLI; series 1000, 500, 250, 125 nM; the filing does not say which partner was on the sensor
[3] = test system: YTDHF1, YTDHF2, YTDHF3 proteins; assay: SPIDER verification (immunoblot) of biotinylated m6A RNA with YTDHF1, YTDHF2, YTDHF3; format: binding; conditions: 0.5 μM biotinylated m6A RNA; GFP antibody
Excerpt: The sequences of YTDHF1-GFP, YTDHF2-GFP and YTDHF3-GFP were constructed on pCDNA3.1 vector and transfected into HEK293T cells with Lipofectamine 2000 (ThermoFisher 118668).
Immunoblot analysis of GFP antibody was used.

[4] = Capture and mass spectrometry identification of m6A RNA interacting proteins; format: binding; conditions: 1 μM bait, HEK293T cell lysate
Experimental: HEK293T normal cells and SLIAC (Lys/Arg relabeled) cells were cultured and lysed with Thermo Fisher 78501 M-PER® Mammalian Protein Extraction to obtain cell lysates.
The reaction system was prepared as follows: 1 μM biotinylated m6A RNA, 5 μM SAm-Pup^E, 0.5 μM PafA7KR enzyme, 5 mM ATP, 5 mg HEK293T cell lysate or SILAC cell lysate were added, and buffer (50 mM Tris 8.0, 0.5 M NaCl, 20 mM MgCl2, 10% (v/v) Glycerol, 10 mM imidazole) was lysed to 5 ml. The system was incubated at 30° C. for 6h, and biotin agarose beads were added for incubation overnight at 4° C. Wash buffer 1 (8M urea, 50 mM Tris 8.0, 200 mM NaCl, 0.2% SDS), Wash Buffer 2 (8M urea, 50 mM Tris 8.0, 200 mM NaCl, 2% SDS), Wash buffer 3 (8M urea, 50 mM Tris 8.0, 200 mM NaCl), Wash buffer 4 (50 mM Tris 8.0, 0.5 mM EDTA, 1 mM DTT), Wash buffer 5 (50 mM NH4HCO3) were incubated at room temperature for 5 min and centrifuged at 1500 rpm for 4 min. The biotin agarose beads were transferred to a 1.5 mL centrifuge tube, centrifuged in a horizontal centrifuge with 1 mL Wash buffer 5, 1500 rpm for 4 min and washed repeatedly with Wash buffer 5 to obtain the reaction product. Trypsin was lysed and identified by mass spectrometry.

ETHR protein = biological target: T4, ETHR protein (Mycobacterium tuberculosis, UniProt P9WMC1); format: binding
T4 construct: Flag (C); 6×His (C); made in house; host or cells: E. coli BL21 (DE3), pET28a

[5] = test system: CSP series proteins (CSP1, CSP2, CSP3); assay: SPIDER verification (Western blot) of c-di-GMP and CSP series short peptides; format: binding; conditions: 2 μM, CSP proteins 5 μM; compared with c-di-GMP without biotinylation
Experimental: The N-terminal sequences encoding CSP1, CSP2 and CSP3 were all labeled with Flag tags and constructed on PET32a vector, which was fused with thioredoxin for expression. The recombinant vector was transformed into E. coli BL21 (DE3) strain. The CSP1, CSP2 and CSP3 proteins were obtained by adding IPTG and inducing at 37° C. for 4h when OD600 was about 0.6 in 1 L of bacteria medium. The CSP1, CSP2 and CSP3 proteins were purified by nickel column.
After that, PafA7KR (1 μM) and ATP (10 mM) were added into the system and incubated at 30° C. for 6 h. Flag antibody was used for Western blot analysis.

VacB = biological target: T1, VacB; assay: BLI; series 1000, 500, 250, 125, 62.5 nM; the filing does not say which partner was on the sensor
VacB, P21499 = biological target: T2, VacB, P21499
DksA, P0ABS1 = biological target: T3, DksA, P0ABS1
[6] = biological target: CobB interacting proteins found and purified (tested by BLI, FIGS. 8B-8F); assay: BLI
VacB and DksA proteins = assay: CobB deacetylation of VacB and DksA (Western blot, acetylation antibody); format: biochemical; conditions: VacB and DksA co-incubated with CobB
Experimental: CobB has the activity of deacetylase. CobB was co-incubated with VacB and DksA proteins, and the acetylation level of protein was detected by Western blot analysis of acetylation antibody.

[7] = Biotin binding activity of SAm-Pup^E (SDS-PAGE); conditions: incubated with biotin at room temperature 1 hour
Experimental: The SAm-Pup^E protein and wild-type streptavidin (SA) purified in step 1 were mixed with biotin (A600078) and incubated at room temperature for 1 hour, and then detected by SDS-PAGE.

[8] = Experimental: The SA-Pup purified from Step 1 was added into Buffer R (50 mM Tris, PH 7.5, 100 mM NaCl, 20 mM MgCl2, 10% (v/v) glycerol) and high salt buffers (50 mM Tris-HCl, PH 8.0, 8 M urea, 15 mM DTT, 1 mM EDTA, PH 8.0) containing 8 M urea, respectively. After mixing, the supernatant was absorbed, and then biotin agarose beads were added to rotate and incubate at room temperature for 1 hour, and then the supernatant was absorbed. The supernatant was detected by SDS-PAGE.
CheAs protein = format: binding; conditions: CheZ 0, 0.1, 0.2, 0.4 μM; wild-type CheAs 0.2 μM
[9] = biological target: B1; assay: BLI; series 7500, 5000, 2500, 1250 nM; the filing does not say which partner was on the sensor

Molecule GldA has a Kd [1] of 59.4 nM and a koff [1] of 0.000295 s⁻¹.

RraA gave a Kd [2] of 24.6 nM and a koff [2] of 0.000201 s⁻¹.

For “biotinylated m6A RNA: 5′-terminal biotin-modified m6A RNA, sequence CGUCUCGGCUCGGCUGCU (SEQ ID NO: 8) (5' biotin, m6A modification, chemistry not fully specified)”, the “protein-SAm-Pup^E complex bands” value [3] was “presence of complex bands only in the presence of biotinylated m6A RNA” and the “binding proteins obtained by mass spectrometry” value [4] was “YTDHF1, YTDHF2 and YTDHF3”.

For Nc1nc2c(ncn2[C@@H]2O[C@@H]3COP(=O)(O)O[C@H]4[C@@H](O)[C@H](n5cnc6c(=O)[nH]c(N)nc65)O[C@@H]4COP(=O)(O)O[C@H]3[C@H]2O)c(=O)[nH]1 [c-di-GMP], the “complex bands with excessive non-biotinylated competitor” value (ETHR protein; excessive non-biotinylated c-di-GMP added to compete with biotinylated c-di-GMP) was “the complex bands were basically unchanged”.

With biotinylated c-di-GMP the “complex band of ETHR and SAm-Pup^E monomer” value (ETHR protein) was “the detected complex bands become thicker” and the “migration of CSP series protein bands” value [5] was “migrated significantly”.

RoxA gave a Kd [1] of 103 nM and a koff [1] of 0.00124 s⁻¹.

In the case of B1, the Kd (VacB) is reported as 156 nM, the koff (VacB) is reported as 0.00163 s⁻¹ and the “acetylation level of VacB (IB: Ac-K), with and without CobB” value (VacB, P21499) is reported as “Ac-K band clear without CobB, almost gone with CobB; His (VacB) bands alike in both lanes; biotin-CobB band only in the + lane”. The “acetylation level of protein detected by Western blot analysis of acetylation antibody” value (VacB, P21499) was “the acetylation level of a group of proteins added with CobB decreased obviously”, the “acetylation level of DksA (IB: Ac-K), with and without CobB” value (DksA, P0ABS1) was “Ac-K band seen without CobB, not seen with CobB; His (DksA) bands alike in both lanes; biotin-CobB band only in the + lane” and the “acetylation level of protein detected by Western blot analysis of acetylation antibody” value (DksA, P0ABS1) was “the acetylation level of a group of proteins added with CobB decreased obviously”. It also gave a Kd [6] of 25 to 772 nM.

With B2 the “acetylation level of protein” value (VacB and DksA proteins) was “decreased obviously”.

In the case of B3, the biotin-binding activity [7] is reported as “the same biotin-binding activity as wild-type streptavidin” and the “stability of binding to biotin agarose beads” value [8] is reported as “can still bind stably in high salt buffer”.

With B4 the “complex bands of CheAs and SAm-Pup^E monomer” value (CheAs protein) was “the detected complex bands become thicker”.

Molecule B5 has a Kd [9] of 772 nM and a koff [9] of 0.00167 s⁻¹.
